Reference: patent publication US20090042269

Target: reduced RNase (reduced pancreatic RNase)

B1: bovine QSOX1 (quiescin Q6 sulfhydryl oxidase 1) isolated from milk (protein)
chain: SALYSSSDPLTLLRADTVRSTVLGSSSAWAVEFFASWCGHCIAFAPTWKALANDVKDWRPALNLAALDCAEETNSAVCRDFNIPGFPTVRFFKAFSKTGSGTTLSVAGADVQTLRERLIDALESHSDTWPPACPPLEPARLEEITGFFARNNEEYLALIFEKEGSYLGREVTLDLSQHQGIAVRRVLNTERDVVNRFGVTNFPSCYLLSRNGSFSRVPALTESRSFYTTYLRKFSGSTRGAVQTTAAPATTSAVAPTVWKVADRSKIYMADLESALHYILRIEVGKFSVLEGQRLVALKKFMAVLAKYFRGRPLVQNFLHSMNDWLKKQQRKKIPYGFFKNALDSRKEGTVIAEKVNWVGCQGSEPHFRGFPCSLWILFHFLTVQAAQEGVDHPQERAKAQEVLQAIRGYVRFFFGCRECAGHFEQMASGSMHRVGSLNSAVLWFWSSHNKVNARLAGAPSEDPQFPKVQWPPRELCSACHNELRGTPVWDLDNILKFLKTHFSPSNIVLDFPSAGPGPWR
For B1, which KM is on record?
Its KM is 60 µM.

What about the kcat (min^-1), thiols oxidized per minute of the same protein?
The kcat (min^-1), thiols oxidized per minute was 1340 min⁻¹.

And the kcat/KM?
The kcat/KM was 374000 M⁻¹ s⁻¹.
